Where two headings read alike, the source gives them in different places.
B1: RBD-Ap-1 (structured_DNA)
DNA: CAGCACCGACCTTGTGCTTTGGGAGTGCTGGTCCAAGGGCGTTAATGGACA
B2: N-Ap (structured_DNA)
DNA: GCTGGATGTCACCGGATTGTCGGACATCGGATTGTCTGAGTCATATGACACATCCAGC

Experiments:
Test in all cases: ELISA
Spike S2 [1] = target: T1, Spike S2 (SARS-CoV-2, UniProt P0DTC2 686-1213)
Nucleocapsid-His = Nucleocapsid-His (SARS-CoV-2, UniProt P0DTC9 1-419)
Spike S2 [2] = target: T1, Spike S2; remark: listed apart in the source
Spike S1-His = Spike S1-His (SARS-CoV-2, UniProt P0DTC2 14-685)

Binder	binding result (Spike S2 [1])	binding result (Nucleocapsid-His)	binding result (Spike S2 [2])	binding result (Spike S1-His)
CGCAGCACCCAAGAACAAGGACTGCTTAGGATTGCGATAGGTTCGG (structured_DNA) [RBD-Ap-2]	no binding	no binding	–	–
B1	no binding	–	–	–
B2	–	–	no binding	no binding

— PMC9238363
